Laboratory results reported in patent US11879149B2, “Quantification method of ethanolamine phosphate, oxidoreductase for quantification, composition for quantification, kit for quantification and sensor for quantification” (KIKKOMAN CORPORATION, priority 2018, dated 2024).

What was measured:
[1] = Oxidase activity measurement and pH dependence of AgPEAOX (4-AA/TOOS/POD, A555); assay type: biochemical
Procedure: Oxidase activity was measured for the expressed, purified AgPEAOX by the methods described above. After incubating 609 μl of a reagent consisting of the composition of Table 5 at 37° C. for 5 minutes, 21 μl of a substrate solution (1500 mM EAP) was added and mixed, and the amount of change at A555 (ΔAS) per 1 minute at 37° C. was measured using the spectrophotometer (U-3900, manufactured by Hitachi High-Tech Science Corporation).
Next, 21 μl of ion-exchanged water was added instead of the substrate solution and mixed, and the amount of change at A555 (ΔA0) per 1 minute at 37° C. was measured. […]
The oxidase activity was calculated based on the following formula: Oxidase activity (U/ml)=(ΔAS−ΔA0)×630×df/(39.2×0.5×x)=32.1×(ΔAS−ΔA0)×df/x • 39.2: Millimolar extinction coefficient (mM^−1cm^−1) of 4-AA-TOOS Condensation dye for 555 nm-wavelength light • df: Dilution rate of enzyme solution (pH-Dependence Measurement of Catalytic Reaction of AgPEAOX)
When the pH dependence of catalytic reaction of AgPEAOX was measured, the activity was measured by replacing Bicine-NaOH buffer solution pH 8.5 contained in the reagent for activity measurement in Table 5 with a potassium phosphate buffer solution, MOPS-NaOH buffer solution, or Bicine-NaOH adjusted to a predetermined pH.

[2] = Dehydrogenase activity measurement of AgPEAOX (1-MPES/WST-1, A438); assay type: biochemical; conditions: pH 8.5; final concentration of 50 mM EAP; 37° C.
Procedure: After incubation of 609 μl of the reagent consisting of the composition of Table 3 for 5 minutes at 37° C., 21 μl of the substrate solution (1500 mM EAP) was added and mixed, and the amount of change at A438 (ΔAS) per 1 minute at 37° C. was measured using the spectrophotometer (U-3900, manufactured by Hitachi High-Tech Science Corporation).
Next, 21 μl of ion-exchanged water was added instead of the substrate solution and mixed, and the amount of change at A438 (ΔA0) per 1 minute at 37° C. was measured. 1-methoxy-5-ethylphenazinium ethyl sulfate (1-MPES), and 2-(4-iodophenyl)-3-(4-nitrophenyl)-5-(2,4-disulfophenyl)-2H-tetrazolium monosodium salt (WST-1) manufactured by DOJINDO LABORATORIES were used.
Dehydrogenase activity was calculated based on the following formula: Dehydrogenase activity (U/ml)=(ΔAS−ΔA0)×630×df/(37.0×x)=17.0×(ΔAS−ΔA0)×df/x • 37.0: Millimolar extinction coefficient (mM^−1 cm^−1) of WST-1 formazan dye for 438 nm-Wavelength Light • df: Dilution rate of enzyme solution (Quantification of EAP by AgPEAOX)

Substance: AgPEAOX: phenylethylamine oxidase derived from Arthrobacter globiformis, UniProt ID P46881, SEQ ID NO: 9
- oxidase activity of purified AgPEAOX solution ([1]; pH 8.5, final concentration of 50 mM EAP, 37° C.): 2.29 U/ml (*purified AgPEAOX solution)
- optimum pH for the catalytic reaction (oxidase activity) ([1]; potassium phosphate, MOPS-NaOH or Bicine-NaOH buffers, FIG. 3): 8.5
- dehydrogenase activity of purified AgPEAOX solution [2]: 0.069 U/ml (*purified AgPEAOX solution)
